Reference: US20150218281A1 (Ablynx, published 2015)
Read-outs that look alike come from different tables or passages of the source.

Experiments:
[1] = target: T1, biotinylated hOX40L (R&D Systems, biotinylated in house) (human, UniProt P23510 51-183, biotinylated with Sulfo-NHS-LC-Biotin, sites not stated); assay: hOX40L/hOX40 AlphaScreen, sample heated 1 min at Tm+10 C
T1 construct: same bought protein as m10, biotinylated; also called biotinylated OX40L
T1 sequence: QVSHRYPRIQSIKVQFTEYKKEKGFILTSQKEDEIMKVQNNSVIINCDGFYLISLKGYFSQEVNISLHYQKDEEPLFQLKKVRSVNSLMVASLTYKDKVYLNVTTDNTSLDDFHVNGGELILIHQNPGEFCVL
Experimental: (§1) Next, streptavidin donor beads were added and incubated for an additional 1 hour. Fluorescence was measured by reading plates on the EnVision Multilabel Plate Reader using an excitation wavelength of 680 nm and an emission wavelength of 520 nm.
(§2) In the TSA assay, Nanobodies were diluted to a concentration of 0.2 mg/ml and melting temperature (Tm) was determined at different pH by stepwise increase in temperature in presence of Sypro Orange, a dye that binds to […] residues that become exposed upon unfolding of the protein, using the Lightcycler (Roche) for detection. […] In SEC analysis, the Nanobodies were analyzed on a Phenomenex matrix to allow detection of multimers, aggregates or ‘stickyness’.

[2] = target: T1, biotinylated hOX40L (R&D Systems, …); assay: hOX40L/hOX40 AlphaScreen, native sample
Experimental: as §1, §2

[3] = target: T1, biotinylated hOX40L (R&D Systems, …); assay: hOX40L/hOX40 AlphaScreen, assay 2, heated at Tm+10 C
Experimental: as §1, §2

[4] = target: T2, recombinant human OX40L (extracellular domain, R&D Systems) (human, UniProt P23510 51-183); assay: cell-based or functional assay
T2 sequence: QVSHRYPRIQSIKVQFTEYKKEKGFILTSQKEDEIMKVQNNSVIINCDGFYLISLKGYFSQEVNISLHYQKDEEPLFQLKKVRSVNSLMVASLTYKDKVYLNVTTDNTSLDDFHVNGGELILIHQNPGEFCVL

[5] = target: T1, biotinylated hOX40L (R&D Systems, …); assay: hOX40L/hOX40 AlphaScreen, assay 1, native
Experimental: Next, streptavidin donor beads were added and incubated for an additional 1 hour. Fluorescence was measured by reading plates on the EnVision Multilabel Plate Reader using an excitation wavelength of 680 nm and an emission wavelength of 520 nm. […]

[6] = target: T1, biotinylated hOX40L (R&D Systems, …); assay: hOX40L/hOX40 AlphaScreen, assay 2, native
Experimental: as §1, §2

[7] = target: T3, full length human OX40L expressed on CHO cells (human, UniProt P23510 1-183); assay: cell-based or functional assay
T3 sequence: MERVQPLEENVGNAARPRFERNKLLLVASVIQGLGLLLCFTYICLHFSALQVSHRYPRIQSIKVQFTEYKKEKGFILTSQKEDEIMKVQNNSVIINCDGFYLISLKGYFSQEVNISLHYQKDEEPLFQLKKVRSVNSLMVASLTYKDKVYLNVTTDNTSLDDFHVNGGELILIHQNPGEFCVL

[8] = target: T3, full length human OX40L expressed on …; assay: cell-based or functional assay; remark: listed apart in the source
[9] = target: T1, biotinylated hOX40L (R&D Systems, …); assay: AlphaScreen, 120 pM biotinylated hOX40L + 0.2 nM hOX40/Fc
Experimental: as §1

[10] = target: T3, full length human OX40L expressed on …; assay: competition FACS, 3.1 nM hOX40/Fc on hOX40L expressing cells
[11] = target: T3, full length human OX40L expressed on …; assay: cell-based or functional assay; remark: listed apart in the source
[12] = target: T2, recombinant human OX40L (extracellular …); assay: cell-based or functional assay; remark: listed apart in the source

B1: OX40L075 (VHH, not shown: small tags and cut ends)
VHH: EVQLVESGGGLVQPGGSLRLSCAASGRSFSTYIMGWFRQAPGKEREFVATISRSGITTRSADSVKGRFTISRDNSKNTVYLQMNSLRPEDTAVYYCAAGPYVEQTLGLYQTLGPWDYWGQGTLVTVSS
B1 gave an IC50 [1] of 1.9 nM and an IC50 [2] of 0.31 nM.

B2: OX40L041 (VHH, not shown: small tags and cut ends)
VHH: DVQLVESGGGLVQPGGSLRLSCAASRSIGRLDRMGWYRHATGEPRELVATITGGSSINYGDFVKGRFTISRDNSKNTVYLQMNSLRPEDTAVYYCNFNKYVTSRDTWGQGTLVTVSS
For B2, the IC50 [3] was 0.262 nM, the “IC50, T cell assay with rec. hOX40L” value [4] was 64 nM and the IC50 [5] was 0.127 nM. It also gave an IC50 [6] of 0.22 nM.

B3: OX40L042 (VHH, not shown: small tags and cut ends)
VHH: DVQLVESGGGLVQPGGSLRLSCAASRSIGRLDRMGWYRHRPGEPRELVATITGGSSINYGDFVKGRFTISRDNSKNTVYLQMNSLRPEDTAVYYCNFNKYVTSRDTWGQGTLVTVSS
For B3, the “IC50, T cell assay with rec. hOX40L” value [4] was 18 nM and the IC50 [5] was 0.057 nM.

B4: OX40L043 (VHH, not shown: small tags and cut ends)
VHH: DVQLVESGGGLVQPGGSLRLSCAASRSIGRLDRMGWYRHRTGKPRELVATITGGSSINYGDFVKGRFTISRDNSKNTVYLQMNSLRPEDTAVYYCNFNKYVTSRDTWGQGTLVTVSS
In the case of B4, the IC50 [3] is reported as 0.156 nM, the “IC50, T cell assay with rec. hOX40L” value [4] is reported as 29 nM and the IC50 [5] is reported as 0.101 nM. It also gave an IC50 [6] of 0.134 nM.

B5: OX40L044 (VHH, not shown: small tags and cut ends)
VHH: DVQLVESGGGLVQPGGSLRLSCAASRSIGRLDRMGWYRHAPGEPRELVATITGGSSINYGDFVKGRFTISRDNSKNTVYLQMNSLRPEDTAVYYCNFNKYVTSRDTWGQGTLVTVSS
B5 was tested, and the “IC50, T cell assay with rec. hOX40L” value [4] was 76 nM and the IC50 [5] was 0.065 nM.

B6: OX40L045 (VHH, not shown: small tags and cut ends)
VHH: DVQLVESGGGLVQPGGSLRLSCAASRSIGRLDRMGWYRHATGKPRELVATITGGSSINYGDFVKGRFTISRDNSKNTVYLQMNSLRPEDTAVYYCNFNKYVTSRDTWGQGTLVTVSS
With B6 the “IC50, T cell assay with rec. hOX40L” value [4] was 133 nM and the IC50 [5] was 0.152 nM.

B7: OX40L046 (VHH, not shown: small tags and cut ends)
VHH: DVQLVESGGGLVQPGGSLRLSCAASRSIGRLDRMGWYRHRPGKPRELVATITGGSSINYGDFVKGRFTISRDNSKNTVYLQMNSLRPEDTAVYYCNFNKYVTSRDTWGQGTLVTVSS
With B7 the IC50 [3] was 0.221 nM, the “IC50, T cell assay with rec. hOX40L” value [4] was 57 nM and the IC50 [5] was 0.084 nM. For the same binder, the IC50 [6] was 0.256 nM.

B8: OX40L047 (VHH, not shown: small tags and cut ends)
VHH: DVQLVESGGGLVQPGGSLRLSCAASRSIGRLDRMGWYRHAPGKPRELVATITGGSSINYGDFVKGRFTISRDNSKNTVYLQMNSLRPEDTAVYYCNFNKYVTSRDTWGQGTLVTVSS
For B8, the IC50 [3] was 0.557 nM, the “IC50, T cell assay with rec. hOX40L” value [4] was 126 nM and the IC50 [5] was 0.269 nM. The IC50 [6] was 0.735 nM.

B9: OX40L048 (VHH, not shown: small tags and cut ends)
VHH: DVQLVESGGGLVQPGGSLRLSCAASRSIGRLDRMGWYRHRTGEPRELVATITGGSSINYADFVKGRFTISRDNSKNTVYLQMNSLRPEDTAVYYCNFNKYVTSRDTWGQGTLVTVSS
In the case of B9, the IC50 [3] is reported as 0.314 nM, the “IC50, T cell assay with rec. hOX40L” value [4] is reported as 32 nM and the IC50 [5] is reported as 0.093 nM. For the same binder, the IC50 [6] was 0.314 nM.

B10: OX40L049 (VHH, not shown: small tags and cut ends)
VHH: DVQLVESGGGLVQPGGSLRLSCAASRSIGRLDRMGWYRHRTGEPRELVATITGGSSINYGDSVKGRFTISRDNSKNTVYLQMNSLRPEDTAVYYCNFNKYVTSRDTWGQGTLVTVSS
With B10 the “IC50, T cell assay with rec. hOX40L” value [4] was 12 nM and the IC50 [5] was 0.035 nM.

B11: OX40L050 (VHH, not shown: small tags and cut ends)
VHH: DVQLVESGGGLVQPGGSLRLSCAASRSIGRLDRMGWYRHRTGEPRELVATITGGSSINYADSVKGRFTISRDNSKNTVYLQMNSLRPEDTAVYYCNFNKYVTSRDTWGQGTLVTVSS
In the case of B11, the IC50 [3] is reported as 0.164 nM, the “IC50, T cell assay with rec. hOX40L” value [4] is reported as 43 nM and the IC50 [5] is reported as 0.046 nM. For the same binder, the IC50 [6] was 0.145 nM.

B12: benchmark OX40L blocking mAb (benchmark IgG) (antibody, V domains shown)
VH: EVQLLESGGGLVQPGGSLRLSCAASGFTFNSYAMSWVRQAPGKGLEWVSIISGSGGFTYYADSVKGRFTISRDNSRTTLYLQMNSLRAEDTAVYYCAKDRLVAPGTFDYWGQGALVTVSS
VL: DIQMTQSPSSLSASVGDRVTITCRASQGISSWLAWYQQKPEKAPKSLIYAASSLQSGVPSRFSGSGSGTDFTLTISSLQPEDFATYYCQQYNSYPYTFGQGTKLEIKR
In the case of B12, the “IC50, T-cell activation assay, donor 1” value [7] is reported as 69.1 nM, the “IC50, T-cell activation assay, donor 2” value [7] is reported as 57.2 nM and the “IC50, T-cell activation assay, donor 3” value [7] is reported as 35.1 nM. For the same binder, the “IC50, T-cell activation assay, donor 4” value [7] was 5.6 nM, the “IC50, T-cell activation assay, donor 10, +10% FBS” value [8] was 203 nM and the “IC50, T-cell activation assay, donor 10, +10% HS” value [8] was 161 nM. The “IC50, T-cell activation assay, donor 11, +10% FBS” value [8] was 61.2 nM, the “IC50, T-cell activation assay, donor 11, +10% HS” value [8] was 30.2 nM and the “IC50, T-cell activation assay, donor 12, +10% FBS” value [8] was 22.1 nM. The “IC50, T-cell activation assay, donor 12, +10% HS” value [8] was 42.9 nM, the “IC50, T-cell activation assay, donor 13, +10% FBS” value [8] was 84.4 nM and the “IC50, T-cell activation assay, donor 13, +10% HS” value [8] was 120 nM.

B13: anti-OX40L benchmark Fab (Fab, V domains shown)
VH: EVQLLESGGGLVQPGGSLRLSCAASGFTFNSYAMSWVRQAPGKGLEWVSIISGSGGFTYYADSVKGRFTISRDNSRTTLYLQMNSLRAEDTAVYYCAKDRLVAPGTFDYWGQGALVTVSS
VL: DIQMTQSPSSLSASVGDRVTITCRASQGISSWLAWYQQKPEKAPKSLIYAASSLQSGVPSRFSGSGSGTDFTLTISSLQPEDFATYYCQQYNSYPYTFGQGTKLEIKR
notes: papain digest of benchmark IgG; also called LC001 Fab
With B13 the IC50 [9] was 1.97 nM, the IC50 [10] was 217 nM and the “IC50, IL4 production, T-cell activation assay, donor 1” value [11] was 80 nM. For the same binder, the “IC50, IL4 production, T-cell activation assay, donor 2” value [11] was 131 nM, the “IC50, IL4 production, T-cell activation assay, donor 3” value [11] was 58 nM and the “IC50, IL4 production, T-cell activation assay, donor 4” value [11] was 85 nM. For the same binder, the “IC50, T-cell activation assay, donor 1” value [7] was 80.2 nM, the “IC50, T-cell activation assay, donor 2” value [7] was 131 nM and the “IC50, T-cell activation assay, donor 3” value [7] was 57.6 nM. For the same binder, the “IC50, T-cell activation assay, donor 4” value [7] was 85.2 nM.

B14: OX40L024 (VHH, not shown: small tags and cut ends)
VHH: EVQLVESGGGLVQPGGSLRLSCAASGRTFSSIYAKGWFRQAPGKEREFVAAISRSGRSTSYADSVKGRFTISRDNAKNTVYLQMNSLRPEDTAVYYCAAVGGATTVTASEWDYWGLGTLVTVSS
In the case of B14, the “IC50, T cell assay with rec. hOX40L” value [12] is reported as 1.54 nM, the IC50 [1] is reported as 0.07 nM and the IC50 [2] is reported as 0.07 nM.

B15: OX40L025 (VHH, not shown: small tags and cut ends)
VHH: EVQLVESGGGLVQPGGSLRLSCAASGRTFSSIYAKGWFRQAPGKEREFVAAISRSGRSTSYADSVKGRFTISRDNSKNTVYLQMNSLRPEDTAVYYCAAVGGATTVTASEWDYWGLGTLVTVSS
For B15, the “IC50, T cell assay with rec. hOX40L” value [12] was 1.15 nM, the IC50 [1] was 0.05 nM and the IC50 [2] was 0.06 nM.

B16: OX40L026 (VHH, not shown: small tags and cut ends)
VHH: EVQLVESGGGLVQPGGSLRLSCAASGRTFSSIYAKGWFRQAPGKEREFVAAISRSGRSTSYADSVKGRFTISRDNAKNTVYLQMNSLRPEDTAVYYCAAVGGATTVTASEWDYWGQGTLVTVSS
For B16, the “IC50, T cell assay with rec. hOX40L” value [12] was 2.46 nM, the IC50 [1] was 0.06 nM and the IC50 [2] was 0.05 nM.

B17: OX40L027 (VHH, not shown: small tags and cut ends)
VHH: EVQLVESGGGLVQPGGSLRLSCAASGRTFSSIYAKGWFRQAPGKEREFVAAISRSGRSTSYADSVKGRFTISRDNSKNTVYLQMNSLRPEDTAVYYCAAVGGATTVTASEWDYWGQGTLVTVSS
With B17 the “IC50, T cell assay with rec. hOX40L” value [12] was 1.43 nM, the IC50 [1] was 0.07 nM and the IC50 [2] was 0.07 nM.
